# T1: human ICAM-R (human, UniProt P32942 30-547)
# T1 construct: On transfected L, CV-1 or COS cells, or native on human leukocytes and cell lines; also called ICAM-3; CDw50
# T1 chain: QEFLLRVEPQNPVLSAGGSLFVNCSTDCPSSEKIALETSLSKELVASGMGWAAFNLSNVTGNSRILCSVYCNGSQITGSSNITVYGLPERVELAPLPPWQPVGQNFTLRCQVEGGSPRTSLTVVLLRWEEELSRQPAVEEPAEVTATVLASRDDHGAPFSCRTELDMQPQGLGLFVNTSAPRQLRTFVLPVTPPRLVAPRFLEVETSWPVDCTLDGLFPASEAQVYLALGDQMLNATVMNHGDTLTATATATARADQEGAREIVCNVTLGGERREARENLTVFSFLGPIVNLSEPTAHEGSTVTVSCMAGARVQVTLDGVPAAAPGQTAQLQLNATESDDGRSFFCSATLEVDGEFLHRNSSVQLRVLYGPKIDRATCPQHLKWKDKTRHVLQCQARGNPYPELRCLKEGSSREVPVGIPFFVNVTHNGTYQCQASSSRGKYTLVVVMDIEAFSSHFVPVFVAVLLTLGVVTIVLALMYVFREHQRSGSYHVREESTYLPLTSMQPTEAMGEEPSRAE
# T2: soluble human ICAM-R (human, UniProt P32942 30-485)
# T2 construct: baculovirus/Sf-9 product; also called shICAM-R; ICAM-Rt1
# T2 chain: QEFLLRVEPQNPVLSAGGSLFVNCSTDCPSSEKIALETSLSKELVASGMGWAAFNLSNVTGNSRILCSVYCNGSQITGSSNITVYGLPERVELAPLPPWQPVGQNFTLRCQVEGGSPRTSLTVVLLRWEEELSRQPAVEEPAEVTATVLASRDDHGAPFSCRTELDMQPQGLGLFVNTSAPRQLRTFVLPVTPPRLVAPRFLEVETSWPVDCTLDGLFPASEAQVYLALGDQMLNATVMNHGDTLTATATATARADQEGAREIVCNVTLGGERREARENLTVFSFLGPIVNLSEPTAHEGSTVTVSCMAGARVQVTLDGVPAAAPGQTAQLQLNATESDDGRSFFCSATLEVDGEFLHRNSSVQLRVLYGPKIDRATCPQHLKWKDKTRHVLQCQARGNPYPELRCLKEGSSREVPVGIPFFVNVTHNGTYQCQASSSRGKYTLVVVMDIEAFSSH
# B1: ICR-1.1 (antibody, mouse IgG2a, V domains shown)
# VH: QVQLQQSGAELADPGASVKMSCKASGYTFTVYWMHWVKQRPGQGLEWIGYINPNTDYTEYNQRFQDKATLTADKSSSTAYMQLSSLTSEDSAVYYCARWGGNSYGLDYWGQGTSVTVSS
# VL: QIVLTQSPALMSASPGEKVTMTCSASSSVSYIYWYQQKPRSSPKPWIYLTSNLASGVPARFSGSGSGASYSLTISIMEAEDAATYYCQQWKSIPLTFGAGTKLELK
# notes: murine IgG2a, kappa; also called 26E3D; 26E3D-1
# Tests used:
# human ICAM-R [1] = target: T1, human ICAM-R; test: FACS, 5 µg/ml
# [2] = target: T3, chimeric Protein 3 (ICAM-R domains 1-3 / ICAM-1) (human, UniProt P05362 317-532); test: FACS, 5 µg/ml
# T3 construct: range 317-532; on COS cells; also called Protein number 3; RD1-3.1D4-5
# human ICAM-1 = target: T4, human ICAM-1 (human, UniProt P05362 28-532); test: FACS, 5 µg/ml
# T4 construct: whole, on cells; on transfected L or COS cells
# T4 sequence (P05362 28-532): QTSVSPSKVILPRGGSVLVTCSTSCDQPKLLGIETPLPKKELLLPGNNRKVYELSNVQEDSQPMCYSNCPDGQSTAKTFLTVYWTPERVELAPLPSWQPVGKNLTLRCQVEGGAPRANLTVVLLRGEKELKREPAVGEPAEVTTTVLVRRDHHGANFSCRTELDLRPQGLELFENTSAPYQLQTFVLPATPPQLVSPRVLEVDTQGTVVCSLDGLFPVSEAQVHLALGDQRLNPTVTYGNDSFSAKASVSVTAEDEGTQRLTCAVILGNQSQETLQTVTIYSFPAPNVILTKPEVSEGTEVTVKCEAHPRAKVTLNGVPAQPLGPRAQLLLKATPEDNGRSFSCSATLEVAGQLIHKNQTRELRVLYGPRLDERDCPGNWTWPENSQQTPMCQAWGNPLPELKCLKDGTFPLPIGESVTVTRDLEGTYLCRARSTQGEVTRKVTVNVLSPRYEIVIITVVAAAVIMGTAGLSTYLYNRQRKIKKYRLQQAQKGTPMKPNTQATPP
# human ICAM-R [3] = target: T1, human ICAM-R; test: cell-based or functional assay
# soluble human ICAM-R = target: T2, soluble human ICAM-R; test: ELISA on coated shICAM-R; Low = 50% maximal binding at >1 µg/ml, High = at <1 µg/ml
binder,measurement,setting,value
B1,percent positive COS cell transfectants,human ICAM-R [1],54.3%
same,percent positive COS cell transfectants,[2],52.7%
same,percent positive COS cell transfectants,human ICAM-1,2.43%
same,"IC50 (µg/ml), inhibition of SEA-induced PBL proliferation by plate-bound antibody",human ICAM-R [3],63 µg/mL
same,monoclonal antibody concentration at 50% maximal binding (ELISA EC50),soluble human ICAM-R,> 1 µg/mL

# — US20010029293A1 (ICOS, published 2001)
